Data reported in the supplement of paper PMC10567573.

B1: ZNF449 (parent)
chain: YRHQRLHTGERPYECTVCKKRFTR
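Note: lentivirally expressed fusions sorted by FACS into six bins by GFP to DsRed ratio, PSI derived from sequencing read proportions per bin multiplied by bin number.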

Variants of: B1
Assay: protein stability index of a GFP-peptide fusion (GPS, HEK-293T) (PSI 1-6); higher = more stable
Conditions: c terminus: a fixed tail appended
With YRHQRLHTGERPYECTVCKKNFTR [R21N] the protein stability index was 1.93.
With YRHQRLHTGERPYECTVCKKFFTR [R21F] the protein stability index was 2.1.
YRHQRLHTGERPYECTVCKKCFTR [R21C] showed a protein stability index of 2.01.
Work on YRHQRLHTGERPYECTVCKKQFTR [R21Q] yielded a protein stability index of 1.98.
YRHQRLHTGERPYECTVCKKAFTR [R21A] gave a protein stability index of 2.06.
Work on YRHQRLHTGERPYECTVCKKEFTR [R21E] yielded a protein stability index of 2.39.
YRHQRLHTGERPYECTVCKKHFTR [R21H] showed a protein stability index of 2.56.
YRHQRLHTGERPYECTVCKKVFTR [R21V] showed a protein stability index of 2.
For YRHQRLHTGERPYECTVCKKRFMR [T23M], the protein stability index was 2.85.
Work on YRHQRLHTGERPYECTVCKKRFIR [T23I] yielded a protein stability index of 2.76.
In the case of YRHQRLHTGERPYECTVCKKRFCR [T23C], the protein stability index is reported as 2.7.
In the case of YRHQRLHTGERPYECTVCKKRFWR [T23W], the protein stability index is reported as 2.13.
Variant YRHQRLHTGERPYECTVCKKRFGR [T23G] has a protein stability index of 2.41.
Variant YRHQRLHTGERPYECTVCKKRFPR [T23P] has a protein stability index of 2.45.
In the case of YRHQRLHTGERPYECTVCKKRFKR [T23K], the protein stability index is reported as 2.54.
For YRHQRLHTGERPYECTVCKKRNTR [F22N], the protein stability index was 3.09.
In the case of YRHQRLHTGERPYECTVCKKRVTR [F22V], the protein stability index is reported as 2.52.
For YRHQRLHTGERPYECTVCKKRCTR [F22C], the protein stability index was 3.46.
Work on YRHQRLHTGERPYECTVCKKRKTR [F22K] yielded a protein stability index of 2.79.
For YRHQRLHTGERPYECTVCKKRHTR [F22H], the protein stability index was 3.21.
For YRHQRLHTGERPYECTVCKKRGTR [F22G], the protein stability index was 2.27.
With YRHQRLHTGERPYECTVCKKRPTR [F22P] the protein stability index was 2.98.
With YRHQRLHTGERPYECTVCKKRWTR [F22W] the protein stability index was 2.3.
In the case of YRHQRKHTGERPYECTVCKKRFTR [L6K], the protein stability index is reported as 2.34.
Work on YRHQRAHTGERPYECTVCKKRFTR [L6A] yielded a protein stability index of 2.77.
In the case of YRHQREHTGERPYECTVCKKRFTR [L6E], the protein stability index is reported as 2.09.
In the case of YRHQRMHTGERPYECTVCKKRFTR [L6M], the protein stability index is reported as 2.37.
YRHQRFHTGERPYECTVCKKRFTR [L6F] gave a protein stability index of 2.17.
YRHQRHHTGERPYECTVCKKRFTR [L6H] showed a protein stability index of 2.73.
Variant YRHQRLHTGERPQECTVCKKRFTR [Y13Q] has a protein stability index of 2.67.
Work on YRHQRLHTGERPTECTVCKKRFTR [Y13T] yielded a protein stability index of 2.51.
YRHQRLHTGERPVECTVCKKRFTR [Y13V] gave a protein stability index of 2.21.
For YRHQRLHTGERPNECTVCKKRFTR [Y13N], the protein stability index was 2.04.
YRHQRLHTGERPPECTVCKKRFTR [Y13P] showed a protein stability index of 2.35.
Work on YRHQRLHTGERPCECTVCKKRFTR [Y13C] yielded a protein stability index of 3.74.
With YRHQRLHTGERPHECTVCKKRFTR [Y13H] the protein stability index was 2.69.
YRHQRLHTGERPRECTVCKKRFTR [Y13R] gave a protein stability index of 2.32.
With YRHQRLHTGERPIECTVCKKRFTR [Y13I] the protein stability index was 2.09.
For YRHQRLHDGERPYECTVCKKRFTR [T8D], the protein stability index was 2.27.
In the case of YRHQRLHMGERPYECTVCKKRFTR [T8M], the protein stability index is reported as 2.83.
YRHQRLHVGERPYECTVCKKRFTR [T8V] gave a protein stability index of 2.29.
YRHQRLHFGERPYECTVCKKRFTR [T8F] showed a protein stability index of 2.31.
With YRHQRLHLGERPYECTVCKKRFTR [T8L] the protein stability index was 1.97.
For YRHQRLHKGERPYECTVCKKRFTR [T8K], the protein stability index was 2.19.
YRHQRLHNGERPYECTVCKKRFTR [T8N] showed a protein stability index of 2.56.
YRHQRLHRGERPYECTVCKKRFTR [T8R] gave a protein stability index of 2.87.
With YRHQRLHGGERPYECTVCKKRFTR [T8G] the protein stability index was 2.38.
Variant YRHQRLHTGERPYECTVPKKRFTR [C18P] has a protein stability index of 3.45.
YRHQRLHTGERPYECTVWKKRFTR [C18W] showed a protein stability index of 2.21.
Work on YRHQRLHTGERPYECTVNKKRFTR [C18N] yielded a protein stability index of 3.43.
For YRHQRLHTGERPYECTVVKKRFTR [C18V], the protein stability index was 3.48.
With YRHQRLHTGERPYECTVIKKRFTR [C18I] the protein stability index was 3.15.
Work on YRHQRLHTGERPYECTVFKKRFTR [C18F] yielded a protein stability index of 2.38.
YRHQRLHTGERPYECTVKKKRFTR [C18K] showed a protein stability index of 3.77.
In the case of YRHQRLHTGERPYECTVMKKRFTR [C18M], the protein stability index is reported as 2.56.
YRHQRLHTGERPYECTVGKKRFTR [C18G] showed a protein stability index of 3.37.
Variant YRHHRLHTGERPYECTVCKKRFTR [Q4H] has a protein stability index of 3.41.
YRHYRLHTGERPYECTVCKKRFTR [Q4Y] gave a protein stability index of 1.78.
YRHSRLHTGERPYECTVCKKRFTR [Q4S] showed a protein stability index of 2.35.
YRHDRLHTGERPYECTVCKKRFTR [Q4D] gave a protein stability index of 2.22.
YRHERLHTGERPYECTVCKKRFTR [Q4E] gave a protein stability index of 2.3.
In the case of YRHFRLHTGERPYECTVCKKRFTR [Q4F], the protein stability index is reported as 1.88.
With YRHPRLHTGERPYECTVCKKRFTR [Q4P] the protein stability index was 2.03.
With YRHGRLHTGERPYECTVCKKRFTR [Q4G] the protein stability index was 2.34.
With YRHQRLHTGNRPYECTVCKKRFTR [E10N] the protein stability index was 2.6.
YRHQRLHTGVRPYECTVCKKRFTR [E10V] gave a protein stability index of 2.4.
YRHQRLHTGKRPYECTVCKKRFTR [E10K] gave a protein stability index of 2.15.
With YRHQRLHTGYRPYECTVCKKRFTR [E10Y] the protein stability index was 3.09.
Variant YRHQGLHTGERPYECTVCKKRFTR [R5G] has a protein stability index of 2.31.
YRHQHLHTGERPYECTVCKKRFTR [R5H] gave a protein stability index of 3.
With YRHQNLHTGERPYECTVCKKRFTR [R5N] the protein stability index was 2.21.
In the case of YRHQDLHTGERPYECTVCKKRFTR [R5D], the protein stability index is reported as 2.06.
In the case of YRHQALHTGERPYECTVCKKRFTR [R5A], the protein stability index is reported as 2.08.
With YRHQFLHTGERPYECTVCKKRFTR [R5F] the protein stability index was 2.49.
In the case of YRHQKLHTGERPYECTVCKKRFTR [R5K], the protein stability index is reported as 2.18.
Work on YRHQQLHTGERPYECTVCKKRFTR [R5Q] yielded a protein stability index of 2.61.
Variant YRHQTLHTGERPYECTVCKKRFTR [R5T] has a protein stability index of 1.69.
With YRDQRLHTGERPYECTVCKKRFTR [H3D] the protein stability index was 2.15.
YRQQRLHTGERPYECTVCKKRFTR [H3Q] gave a protein stability index of 2.21.
For YRKQRLHTGERPYECTVCKKRFTR [H3K], the protein stability index was 2.05.
YRCQRLHTGERPYECTVCKKRFTR [H3C] gave a protein stability index of 2.4.
Work on YRMQRLHTGERPYECTVCKKRFTR [H3M] yielded a protein stability index of 2.14.
Variant YRTQRLHTGERPYECTVCKKRFTR [H3T] has a protein stability index of 2.56.
Variant YRHQRLHTGERPYECTVCIKRFTR [K19I] has a protein stability index of 2.58.
Variant YRHQRLHTGERPYECTVCSKRFTR [K19S] has a protein stability index of 1.74.
In the case of YRHQRLHTGERPYECTVCAKRFTR [K19A], the protein stability index is reported as 2.68.
In the case of YRHQRLHTGERPYECTVCQKRFTR [K19Q], the protein stability index is reported as 2.57.
YRHQRLHTGERPYECTVCPKRFTR [K19P] showed a protein stability index of 2.69.
In the case of YRHQRLHTGERPYECTVCNKRFTR [K19N], the protein stability index is reported as 2.19.
YRHQRLHTGERPYECTVCVKRFTR [K19V] showed a protein stability index of 2.3.
Variant YRHQRLHTGERPYECTVCHKRFTR [K19H] has a protein stability index of 1.55.
Work on YRHQRLHTGERPYECTVCCKRFTR [K19C] yielded a protein stability index of 2.12.
In the case of YRHQRLHTGERPYECTVCRKRFTR [K19R], the protein stability index is reported as 2.34.
YRHQRLHTGERPYECTVCTKRFTR [K19T] gave a protein stability index of 2.77.
